# Measurements taken from patent US20150196656A1 (IGF ONCOLOGY, published 2015).
# What was measured:
# type 1 IGF receptor = molecular target: T1, type 1 IGF receptor (human, UniProt P08069 31-1367); assay: competition binding to IGF receptors against radioactive wild type IGF; approximate KD
# T1 construct: whole, on cells; also called IGF-1 receptor; IGF-1R
# Procedure: 200 ul of each of these was mixed rapidly with 1.8 ml of refold buffer. Refold buffer was 1.4 M urea, 100 mM glycine, 0.5 M NaCl, 19% ethanol, 0.5 mM GSSG, 4 mM GSH, pH 9.5.
# dihydrofolate reductase = assay: cell-based or functional assay; parameters: unit not given beside the values
# T1 sequence (P08069 31-1367): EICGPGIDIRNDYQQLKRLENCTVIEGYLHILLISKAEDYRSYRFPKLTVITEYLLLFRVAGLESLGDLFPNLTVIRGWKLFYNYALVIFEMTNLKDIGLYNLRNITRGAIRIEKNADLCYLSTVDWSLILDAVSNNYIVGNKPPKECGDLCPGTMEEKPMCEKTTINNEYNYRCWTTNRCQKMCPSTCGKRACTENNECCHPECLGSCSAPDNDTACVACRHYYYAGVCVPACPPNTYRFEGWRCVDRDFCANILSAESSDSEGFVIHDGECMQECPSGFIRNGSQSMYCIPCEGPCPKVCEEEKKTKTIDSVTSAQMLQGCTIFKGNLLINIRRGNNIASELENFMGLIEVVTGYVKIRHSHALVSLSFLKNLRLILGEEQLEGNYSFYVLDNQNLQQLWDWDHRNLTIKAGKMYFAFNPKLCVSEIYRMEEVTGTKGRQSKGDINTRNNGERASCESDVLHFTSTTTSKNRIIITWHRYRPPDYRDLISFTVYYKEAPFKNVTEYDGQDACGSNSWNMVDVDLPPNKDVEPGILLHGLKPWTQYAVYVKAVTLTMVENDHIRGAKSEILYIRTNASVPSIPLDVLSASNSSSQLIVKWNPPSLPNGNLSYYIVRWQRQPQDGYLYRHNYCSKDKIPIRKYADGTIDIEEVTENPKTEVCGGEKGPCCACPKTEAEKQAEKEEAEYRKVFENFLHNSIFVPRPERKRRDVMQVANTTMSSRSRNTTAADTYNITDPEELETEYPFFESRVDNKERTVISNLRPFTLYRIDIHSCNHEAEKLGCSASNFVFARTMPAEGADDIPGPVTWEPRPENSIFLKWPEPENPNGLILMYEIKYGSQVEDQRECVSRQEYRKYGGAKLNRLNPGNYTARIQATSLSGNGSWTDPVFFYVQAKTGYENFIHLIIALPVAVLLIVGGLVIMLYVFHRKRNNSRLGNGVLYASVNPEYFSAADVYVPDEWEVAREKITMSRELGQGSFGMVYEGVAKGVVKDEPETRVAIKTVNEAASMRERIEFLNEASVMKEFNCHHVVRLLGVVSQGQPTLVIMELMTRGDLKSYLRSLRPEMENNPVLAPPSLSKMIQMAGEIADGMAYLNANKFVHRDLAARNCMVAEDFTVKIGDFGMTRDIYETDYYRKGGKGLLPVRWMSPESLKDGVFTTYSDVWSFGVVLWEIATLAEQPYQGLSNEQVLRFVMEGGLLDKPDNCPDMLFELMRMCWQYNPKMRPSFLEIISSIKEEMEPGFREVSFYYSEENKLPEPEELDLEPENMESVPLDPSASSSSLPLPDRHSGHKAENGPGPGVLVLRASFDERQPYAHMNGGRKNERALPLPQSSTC
Kd (type 1 IGF receptor),IC50 (inhibition of dihydrofolate reductase) (dihydrofolate reductase),Binder
~2 nM,,"403IGF (ligand, also called His6-IGF) MTSGHHHHHHSAGVNGFVNQHLCGSHLVEALYLVCGDRGFYFNKPTGYGSSSRRAPQTGIVDECCFRSCDLRRLEMYCAPLKPAKSA"
~40 nM,,"785IGF (ligand, also called mutTrx-IGF132) MVKQIESKTAFQEALDAAGDKLVVVDFSATWCGHCKMIKPFFHSLSEKYSNVIFLEVDVDDSQDVASESEVKSMPTFQFFKKGQKVGEFSGANKEKLEATINELVGSKSGHHHHHHSAKGFVNQHLCGSHLVEALYLVCGDRGFYFNKPTGYGSSSRRAPQTGIVDECCFRSCDLRRLEMYCAPLKPAKSA"
,99,"LR3IGF-MTX (other, methotrexate attached to amino groups; MTX:protein ratio of 2.8) MFPAMPLSSLFVNGPRTLCGALVDALQFVCGDRGFYFNKPTGYGSSSRRAPQTGIVDECCFRSCDLRRLEMYCAPLKPAKSEA"
~100 nM,,"764IGF (ligand, also called His6-K5-IGF132) MVKGKHHHHHHNGKGKSKFVNQHLCGSHLVEALYLVCGDRGFYFNKPTGYGSSSRRAPQTGIVDECCFRSCDLRRLEMYCAPLKPAKSA"
